For assay [1], the target named is T1, OPTN (26–196 aa)-EGFP with E50K (UniProt Q96CV9 26-196, E50K).
T1 construct: source: E. coli BL21-CodonPlus(DE3)-RIL, purified (Ni-NTA); not shown: EGFP, C-terminal, kept
Kind of assay: pull-down; recombinant GST-TBK1 (677–729 aa), OPTN (26–196 aa)-EGFP or EGFP alone, and monobodies, 4.5 μM each, with glutathione Sepharose in 50 mM Tris–HCl pH 7.5, 120 mM NaCl, 1 mM TCEP, 10% glycerol, 30 min at room temperature; washes with 0.1% Triton X-100; CBB staining. The settings on record: both partners purified.

Assay [2] has as its target T2, biotinylated OPTN (26–196 aa) (UniProt Q96CV9 26-196, NH2-GGG(Lys[Biotin])-CONH2 joined at the C-terminal sortase recognition sequence by Sortase 5Y).
T2 construct: also called Biotin-modified OPTN; not shown: GST, N-terminal, cleaved; His6, C-terminal, cleaved; biotin (GGGK-biotin), C-terminal, kept
In words: BLI; biotinylated OPTN (26–196 aa) immobilised on a streptavidin biosensor (Octet); monobody as analyte at various concentrations; 30 °C; 50 mM Hepes-KOH pH 7.5, 300 mM NaCl, 0.05% Tween 20, 0.1% PEG6000; association 600 s, dissociation 600 s; global fitting. The settings on record: both partners purified. On the technique in general: Biolayer interferometry detects binding as a change in optical thickness at a sensor tip.

T2 sequence (Q96CV9 26-196): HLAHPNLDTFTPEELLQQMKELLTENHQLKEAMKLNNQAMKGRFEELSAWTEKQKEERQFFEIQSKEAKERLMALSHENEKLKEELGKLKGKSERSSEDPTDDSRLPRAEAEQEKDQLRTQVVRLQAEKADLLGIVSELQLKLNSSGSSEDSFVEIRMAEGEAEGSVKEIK
T1 sequence (Q96CV9 26-196 E50K): as the sequence (Q96CV9 26-196) above, with E25K counted along it

B1: GST-TBK1 (677–729 aa) (domain or fragment, UniProt Q9UHD2 677-729, looked up)
chain: YPSSNTLVEMTLGMKKLKEEMEGVVKELAENNHILERFGSLTMDGGLRNVDCL
notes: Plasmid pGEX6P1_opt-TBK1 (677–729aa); also called GST-tagged TBK1 (677–729 aa); GST-TBK chimera; source: E. coli BL21-CodonPlus(DE3)-RIL, purified (glutathione Sepharose); not shown: GST, N-terminal, kept
On to B1, for which the binding result in assay [1] is reported as “binds”.

B2: recombinant OPTN monobody clone #3 (His6-tagged) (designed binder)
chain: VSDVPRDLEVVAATPTSLLISWDAPWWWDYGYMYYRITYGETGGNSPVQEFTVPGSKSTATISGLKPGVDYTITVYAWDVAEWVTKVATSWPISINYRT
What is called Kd is the free concentration of one partner at which half of the binding sites on the other are occupied at equilibrium, for simple one-to-one binding. A high value points to weaker binding. Molecule B2 yielded a Kd in assay [2] of 4.56 nM.

B3: recombinant OPTN monobody clone #4 (His6-tagged) (designed binder)
chain: VSDVPRDLEVVAATPTSLLISWDAPWFWYFPYYYQEWYYRITYGETGGNSPVQEFTVPGSKSTATISGLKPGVDYTITVYAAMELKGIQEYRNPISINYRT
In assay [2], B3 returned a Kd of 6.19 nM.

These data come from publication PMC10907724, “Optineurin provides a mitophagy contact site for TBK1 activation” (The EMBO Journal, 2024).
